# B1: Peroxisome proliferator-activated receptor gamma coactivator 1-alpha (Homo sapiens), Q9UBK2 (parent)
# chain: MAWDMCNQDSESVWSDIECAALVGEDQPLCPDLPELDLSELDVNDLDTDSFLGGLKWCSDQSEIISNQYNNEPSNIFEKIDEENEANLLAVLTETLDSLPVDEDGLPSFDALTDGDVTTDNEASPSSMPDGTPPPQEAEEPSLLKKLLLAPANTQLSYNECSGLSTQNHANHNHRIRTNPAIVKTENSWSNKAKSICQQQKPQRRPCSELLKYLTTNDDPPHTKPTENRNSSRDKCTSKKKSHTQSQSQHLQAKPTTLSLPLTPESPNDPKGSPFENKTIERTLSVELSGTAGLTPPTTPPHKANQDNPFRASPKLKSSCKTVVPPPSKKPRYSESSGTQGNNSTKKGPEQSELYAQLSKSSVLTGGHEERKTKRPSLRLFGDHDYCQSINSKTEILINISQELQDSRQLENKDVSSDWQGQICSSTDSDQCYLRETLEASKQVSPCSTRKQLQDQEIRAELNKHFGHPSQAVFDDEADKTGELRDSDFSNEQFSKLPMFINSGLAMDGLFDDSEDESDKLSYPWDGTQSYSLFNVSPSCSSFNSPCRDSVSPPKSLFSQRPQRMRSRSRSFSRHRSCSRSPYSRSRSRSPGSRSSSRSCYYYESSHYRHRTHRNSPLYVRSRSRSPYSRRPRYDSYEEYQHERLKREEYRREYEKRESERAKQRERQRQKAIEERRVIYVGKIRPDTTRTELRDRFEVFGEIEECTVNLRDDGDSYGFITYRYTCDAFAALENGYTLRRSNETDFELYFCGRKQFFKSNYADLDSNSDDFDPASTKSKYDSLDFDSLLKEAQRSLRR
# partner: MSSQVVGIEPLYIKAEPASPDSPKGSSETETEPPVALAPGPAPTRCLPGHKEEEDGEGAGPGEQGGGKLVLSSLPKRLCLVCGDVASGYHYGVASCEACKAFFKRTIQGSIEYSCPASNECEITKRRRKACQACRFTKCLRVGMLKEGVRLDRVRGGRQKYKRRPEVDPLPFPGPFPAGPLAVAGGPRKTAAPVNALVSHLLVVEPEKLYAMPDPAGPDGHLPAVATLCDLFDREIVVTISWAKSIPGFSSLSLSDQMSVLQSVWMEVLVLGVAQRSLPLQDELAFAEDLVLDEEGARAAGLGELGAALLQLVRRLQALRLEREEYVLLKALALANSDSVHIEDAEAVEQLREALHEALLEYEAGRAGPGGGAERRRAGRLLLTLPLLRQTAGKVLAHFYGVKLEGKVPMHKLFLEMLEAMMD
# B2: Peroxisome proliferator-activated receptor gamma coactivator 1-alpha (Homo sapiens), Q9UBK2 (parent)
# chain: B1 chain
# Tests used:
# err1_human ESRRA, P11474 [1] = variants of: B1; conditions: with err1_human ESRRA
# err1_human ESRRA, P11474 [2] = variants of: B1; conditions: with err1_human ESRRA; remark: listed apart in the source
# rxra_human RXRA, P19793 = variants of: B2; conditions: with rxra_human RXRA
# esr1_human ESR1, P03372 = variants of: B2; conditions: with esr1_human ESR1, P03372
# Sequence of esr1_human ESR1, P03372 (P03372 whole entry): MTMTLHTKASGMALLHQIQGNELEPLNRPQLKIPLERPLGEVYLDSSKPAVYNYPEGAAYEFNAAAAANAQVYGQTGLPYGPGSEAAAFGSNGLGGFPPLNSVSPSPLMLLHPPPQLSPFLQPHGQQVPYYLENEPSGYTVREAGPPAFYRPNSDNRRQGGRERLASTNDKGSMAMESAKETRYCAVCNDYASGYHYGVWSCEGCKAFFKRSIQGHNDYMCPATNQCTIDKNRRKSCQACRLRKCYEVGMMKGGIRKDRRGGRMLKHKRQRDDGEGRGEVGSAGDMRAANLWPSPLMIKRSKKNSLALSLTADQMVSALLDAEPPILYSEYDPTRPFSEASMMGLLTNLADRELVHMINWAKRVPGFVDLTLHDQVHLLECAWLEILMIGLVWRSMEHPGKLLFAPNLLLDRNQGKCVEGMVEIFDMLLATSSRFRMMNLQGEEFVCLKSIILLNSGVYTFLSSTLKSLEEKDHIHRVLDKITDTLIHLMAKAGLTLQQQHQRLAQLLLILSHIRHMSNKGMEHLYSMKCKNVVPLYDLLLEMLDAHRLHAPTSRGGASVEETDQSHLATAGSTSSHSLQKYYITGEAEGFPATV
# Sequence of rxra_human RXRA, P19793 (P19793 whole entry): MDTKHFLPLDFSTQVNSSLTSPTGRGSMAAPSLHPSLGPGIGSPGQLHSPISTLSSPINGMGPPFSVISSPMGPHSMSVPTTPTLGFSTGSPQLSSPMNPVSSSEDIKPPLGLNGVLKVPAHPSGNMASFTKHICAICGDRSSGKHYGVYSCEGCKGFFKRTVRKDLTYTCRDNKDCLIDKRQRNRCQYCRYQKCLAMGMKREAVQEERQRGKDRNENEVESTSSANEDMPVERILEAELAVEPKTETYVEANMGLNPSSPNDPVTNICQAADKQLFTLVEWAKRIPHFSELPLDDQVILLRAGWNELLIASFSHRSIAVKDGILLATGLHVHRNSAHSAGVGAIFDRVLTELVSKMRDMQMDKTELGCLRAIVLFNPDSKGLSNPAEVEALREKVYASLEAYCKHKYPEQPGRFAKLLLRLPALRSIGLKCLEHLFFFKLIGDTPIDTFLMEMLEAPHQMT
Variant,"effect of a mutation on the interaction (err1_human ESRRA, P11474 [1])","effect of a mutation on the interaction (err1_human ESRRA, P11474 [2])","effect of a mutation on the interaction (rxra_human RXRA, P19793)","effect of a mutation on the interaction (esr1_human ESR1, P03372)"
L147A;L148A,decreasing interaction strength,with no effect,,
L147A;L148A;L210A;L211A,disrupting interaction strength,,,
L210A;L211A,decreasing interaction strength,with no effect,,
L147A;L148A,,,disrupting interaction strength,decreasing interaction strength
L147A;L148A;L210A;L211A,,,disrupting interaction strength,disrupting interaction strength
L210A;L211A,,,decreasing interaction strength,with no effect

# Reference: IntAct's records for PubMed 12522104
